From article PMC6564688 (Nature structural & molecular biology, 2019)

Key:
chicken Otop3 (chicken) = experiment: cryo-EM structure
cryo-EM structure = target: the molecule itself; experiment: cryo-EM structure

Row | stoichiometry N (chicken Otop3 (chicken)) | Molecule | stoichiometry N (cryo-EM structure)
1 | 2 | chicken Otop3 (natural protein) | –
2 | – | zebrafish Otop1 (natural protein, UniProt Q7ZWK8 1-586, looked up) MVEHGGTDSMWLNKYNPAAASSASSSSSSDAENKLFSRLKVSLTKKYPQKNAELLSAQYGTNLLLLGVSVMLALAAQSGPVKEEHLLSFITVLMLVQLVWMLCYMIRRERERSPVPERDAHAGASWIRGGLTMLALLSLIMDAFRIGYFVGYHSCISAALGVYPIVHALHTISQVHFLWFHIKDVIKKYETFERFGVIHAVFTNLLLWCNGVMSETEHFMHNHRRRLIEMGYANLSTVDVQPHCNCTTSVCSMFSTSLYYLYPFNIEYHIFVSAMLFVMWKNIGRTLDRHSNRKRRSTGSTGLLLGPLGGLVALASSVSVLVVYLIHLEKTEEMHEAAVSMFYYYGVAMMACMCVGSGTGLLVYRMENRPMDTGSNPARTLDTELLLASSLGSWLMSWCSVVASVAEAGQKSPSFSWTSLTYSLLLVLEKCIQNLFIVESLYRRHSEEEEDAAAPQVFSVAVPPYDGILNHGYEAHDKHREAEPAAGSHALSRKQPDAPLPAGQRLDVTPGRKRQILKNICMFLFMCNISLWILPAFGCRPQYDNPLENETFGTSVWTTVLNVAIPLNLFYRMHSVASLFEVFRKV | 2
